The values below come from US20040115734A1 (VLAAMS INTERUNIVERSITAIR INSTITUUT VOOR BIOTECHNOLOGIE VZW, published 2004).

In experiment [1] the target is T1, GST-PS1/1-81N (UniProt P49768 1-81).
T1 construct: range 1-81; Lacks the first transmembrane domain of PS1; also called PS1 N-terminus fused to GST; GST-fused with the N-terminus of PS1; not shown: glutathione S-transferase (GST) encoded by vector pGEX4T-1 (Pharmacia Biotech)
Kind of experiment: GST pull-down of [35S]-labeled C-terminal APP-stubs expressed in neurons.

The target of experiment [2] is T2, GST alone (UniProt P08515 1-218 = GST).
T2 construct: Negative control, immobilized on glutathione beads; also called GST-beads
The experiment can be described thus: GST pull-down of [35S]-labeled C-terminal APP-stubs expressed in neurons; data not shown.

Experiment [3] addresses T1, GST-PS1/1-81N. The experiment can be described thus: GST pull-down of in vitro translated [35S]-labeled TLN constructs, autoradiogram. The protocol:
(§1) Part C. Total: autoradiogram of the translated, [³⁵S]-methionine labeled TLN constructs used for the binding reaction. Similar amounts of input material are used. Note the tendency of the intracellular domain (IC) to oligomerize.
(§2) Part D. Mapping of the binding domain of TLN. […] Radiolabeled translated products (Total) were assayed for binding to GST-PS1/39C (third panel), GST-PS1/1-81N (fourth panel) or GST alone (not shown). Binding becomes virtually abolished when the N-terminal 5 amino acids (Val⁸²⁹-Trp⁸³³) of the transmembrane region of TLN are deleted (construct 8 in top panel).

For experiment [4], the target named is T2, GST alone. Described as above. The protocol:
as §1, §2

In experiment [5] the target is T3, TLN/256C clone of the pAD-GAL4 mouse hippocampal two-hybrid library (mouse, UniProt Q60625 662-917).
T3 sequence (looked up): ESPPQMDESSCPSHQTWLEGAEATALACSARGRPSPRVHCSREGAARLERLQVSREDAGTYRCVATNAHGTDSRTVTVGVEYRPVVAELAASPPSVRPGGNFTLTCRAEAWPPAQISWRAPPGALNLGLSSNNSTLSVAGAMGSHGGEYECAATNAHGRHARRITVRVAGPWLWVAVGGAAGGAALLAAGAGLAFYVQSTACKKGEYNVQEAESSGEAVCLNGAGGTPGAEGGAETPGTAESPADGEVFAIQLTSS
The experiment can be described thus: yeast two-hybrid screen, His+ selection and β-galactosidase filter lift. The source says:
Endogenous TLN could be precipitated from Triton X-100 brain extracts using recombinant GST fusion proteins containing the 39 C-terminal residues of PS1 or PS2 (PS1/39C, FIG. 1, Part B). The binding was salt dependent (FIG. 1, Part C). […] We detected a weak signal for endogenous holo-APP only after long exposure (FIG. 1, Part D). […] Although the PS1-NTF/ CTF is Triton-X100 sensitive, minor amounts of PS1-NTF were also detected in precipitates of Triton-X100-extracted membranes. In the presence of 2% CHAPS however, both PS1-NTF and PS1-CTF were recovered on the beads as both fragments remain non-covalently bound under these conditions (Capell et al., 1998). […] Since CHAPS is less denaturing than TX100, it is possible that other proteins of the complex cause steric hindrance under these conditions (Capell et al., 1998).
Mouse hippocampal mRNA was used to generate a primary lambda library that was converted to a pAD-GAL4 plasmid library by in vivo mass excision (HybriZAP, Stratagene). The sequence coding for the C-terminal eight amino acids of PS1 was cloned into the pBD-GAL4 vector. Yeast was transformed simultaneously with the bait and the library plasmids using the lithium-acetate method (Gietz et al., 1995). His⁺ colonies were restreaked onto selection agar plates and assayed for lacZ gene expression by the β-galactosidase filter lift assay.

Experiment [6] concerns the target T4, GST-TLN/256C (mouse, UniProt Q60625 662-917).
T4 construct: Immobilized on glutathione beads; not shown: glutathione S-transferase (GST) encoded by vector pGEX4T-1 (Pharmacia Biotech)
T4 sequence (looked up): T3 sequence (looked up)
Kind of experiment: GST pull-down from 1% Triton-X100 or 2% CHAPS mouse brain extracts, western blot. The protocol:
GST alone was used as a negative control. PS1-CTF was predominantly detected in the bound fraction of low salt 1% Triton-X100 brain extracts. […] The difference between the intensity of the bands is due to different affinities of the pabs as shown for the crude extract (“Total” in first lane). Binding was largely abolished at high salt concentrations (400 mM).
Murine cortices were homogenized in 250 mM sucrose containing 10 mM Tris-HCL pH 7.4, 1 mM EDTA (De Strooper et al., 1999). Nuclei and tissue fragments were removed by low speed centrifugation. Microsomal membranes pelleted by high-speed centrifugation (50K rpm, 1 hour) were resuspended in LSB containing 1% Triton X-100 or 2% CHAPS. Aliquots (1 mg/ml) of the cleared extracts (55K rpm, 1 hour) were incubated overnight (4° C.) with immobilized GST fusion proteins. Beads were washed in low salt extraction buffer containing 0.5% Triton X-100 and bound proteins were analyzed by SDS-PAGE and western blotting.
(In general: Immunoblotting shows a protein as a band on a membrane.)

T2 sequence (P08515 whole entry): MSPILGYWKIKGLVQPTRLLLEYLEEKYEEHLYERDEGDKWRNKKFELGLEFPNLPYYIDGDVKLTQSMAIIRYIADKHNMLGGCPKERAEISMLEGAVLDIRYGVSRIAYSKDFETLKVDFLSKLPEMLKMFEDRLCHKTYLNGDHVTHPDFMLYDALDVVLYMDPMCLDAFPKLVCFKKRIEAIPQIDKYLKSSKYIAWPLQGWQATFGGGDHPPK

B1: APP-C59 (other, UniProt P05067 712-770, looked up)
chain: IATVIVITLVMLKKKQYTSIHHGVVEVDAAVTPEERHLSKMQQNGYENPTYKFFEQMQN
notes: domain: γ40-cleaved C-terminal fragment (APP-C59); also called γ40-cleaved cytoplasmic domain of APP
Turning to B1, the binding result in experiment [1] and in experiment [2] was “no binding” each time.

B2: intracellular domain (IC) of TLN (in vitro translated) (other, mouse, UniProt Q60625 855-917, looked up)
chain: AFYVQSTACKKGEYNVQEAESSGEAVCLNGAGGTPGAEGGAETPGTAESPADGEVFAIQLTSS
notes: domain: intracellular domain (IC); also called IC domain of TLN
With B2, the binding result in experiment [3] and in experiment [4] was “no binding” each time.

B3: PS1-C8 bait (C-terminal eight amino acids of PS1 in pBD-GAL4) (other, UniProt P04386 1-147, looked up)
chain: MKLLSSIEQACDICRLKKLKCSKEKPKCAKCLKNNWECRYSPKTKRSPLTRAHLTEVESRLERLEQLFLLIFPREDLDMILKMDSLQDIKALLTGLFVQDNVNKDAVTDRLASVETDMPLTLRQHRISATSSSEESSNKGQRQLTVSLAFHQFYI
With B3, in experiment [5], the binding result is “binds”.

B4: ductin (endogenous, mouse brain extract) (other, UniProt P63082 1-155, looked up)
chain: MADIKNNPEYSSFFGVMGASSAMVFSAMGAAYGTAKSGTGIAAMSVMRPELIMKSIIPVVMAGIIAIYGLVVAVLIANSLTDGITLYRSFLQLGAGLSVGLSGLAAGFAIGIVGDAGVRGTAQQPRLFVGMILILIFAEVLGLYGLIVALILSTK
Regarding B4, in experiment [6], the binding result is “no binding”.

B5: BAP31 (endogenous, mouse brain extract) (other, UniProt Q61335 2-245, looked up)
chain: SLQWTTVATFLYAEVFAVLLLCIPFISPKRWQKVFKSRLVELVVTYGNTFFVVLIVILVLLVIDAVREILKYDDVTEKVNLQNNPGAMEHFHMKLFRAQRNLYIAGFSLLLSFLLRRLVTLISQQATLLASNEAFKKQAESASEAAKKYMEENDQLKKGAAEDGDKLDIGNTEMKLEENKSLKNDLRKLKDELASTKKKLEKAENEALAMQKQSEGLTKEYDRLLEEHAKLQASVRGPSVKKEE
As to B5, in experiment [6], the binding result is on record as “no binding”.
